Experimental data: paper PMC4263767, “IL-28B is a Key Regulator of B- and T-Cell Vaccine Responses against Influenza” (PLoS Pathogens, 2014)

Legend:
[1] = system: PBMCs from transplant recipients; test: Cytokine release by H1N1-stimulated transplant recipient PBMCs, overnight (luminex); format: cell-based, human
[2] = system: T-cells, monocytes and macrophages; details: ref [42], [43]; cited from earlier work
Excerpt: The IFN-λ family (Interleukin-28A, -28B, -29, and IFN-λ4) is a recently described class of IFNs with antiviral properties similar to IFN-α and -β [14]–[17]. IFN-λ is known to induce phosphorylation of STAT-1 and -2 via binding to its receptor, which is a heterodimer consisting of the IL-28 receptor alpha subunit (IL28RA) and IL-10 receptor beta subunit (IL10RB). […] Furthermore, IFN-λs induced the development of T-regu ... || IL-28B (IFN-λ3) belongs to the family of IFN-lambdas and shares antiviral properties similar to IFN-α via induction of interferon stimulated genes (ISGs) such as MX1 or OAS1 [41]. […] IL-12 is a key cytokine for the induction of Th1 cells and cytotoxic lymphocytes, [43]. SNPs in the IL-28B gene (minor-allele genotypes) have been associated with reduced IL-28B expression, [29]–[33], which could impact adaptive immune functions during vaccination. One limitation of our study is that we d ...

[3] = system: B-cells in PBMCs from healthy volunteers; test: H1N1-stimulated B-cell proliferation (Cell Trace Violet); format: cell-based, human
[4] = IL-28B 100 ng/mL, overnight H1N1, p=0.04
[5] = IL-28B 100 ng/mL, overnight H1N1, p=0.39
[6] = IL-28B 100 ng/mL, overnight H1N1, p=1.00
[7] = IL-28B 100 ng/mL, overnight H1N1, transplant PBMCs, median (IQR)

B1: IL-28B: recombinant IL-28B, a member of the interferon (IFN)-λ family (protein)
chain: VPVARLRGALPDARGCHIAQFKSLSPQELQAFKRAKDALEESLLLKDCKCRSRLFPRTWDLRQLQVRERPVALEAELALTLKVLEATADTDPALGDVLDQPLHTLHHILSQLRACIQPQPTAGPRTRGRLHHWLHRLQEAPKKESPGCLEASVTFNLFRLLTRDLNCVASGDLCV
modifications: left off: His tag, end not stated, kept
notes: recombinant IL-28B, a member of the interferon (IFN)-λ family
- H1N1-stimulated Th1-cytokine expression (IFN-γ, IL6) ([1]; IL-28B 100 ng/mL, 2 h before overnight H1N1, n = 36): significant increase
- IFN-α, ratio IL-28B/no IL-28B ([1]; IL-28B 100 ng/mL, overnight H1N1, p=0.001): 2.9
- IFN-γ, ratio IL-28B/no IL-28B [1, 4]: 2.1
- MIP-1α, ratio IL-28B/no IL-28B [1, 4]: 1.8
- sCD40-L, ratio IL-28B/no IL-28B [1, 4]: 1.0
- IL-6, ratio IL-28B/no IL-28B ([1]; IL-28B 100 ng/mL, overnight H1N1, p=0.05): 2.4
- IP-10, ratio IL-28B/no IL-28B ([1]; IL-28B 100 ng/mL, overnight H1N1, p=0.14): 1.0
- MCP-3, ratio IL-28B/no IL-28B ([1]; IL-28B 100 ng/mL, overnight H1N1, p=0.33): 1.2
- Fractalkine, ratio IL-28B/no IL-28B [1, 5]: 5.0
- TNF-α, ratio IL-28B/no IL-28B [1, 5]: 1.9
- IL-1β, ratio IL-28B/no IL-28B ([1]; IL-28B 100 ng/mL, overnight H1N1, p=0.44): 1.0
- MCP-1, ratio IL-28B/no IL-28B ([1]; IL-28B 100 ng/mL, overnight H1N1, p=0.61): 1.0
- IL-2, ratio IL-28B/no IL-28B ([1]; IL-28B 100 ng/mL, overnight H1N1, p=0.86): 1.1
- IL-4, ratio IL-28B/no IL-28B ([1]; IL-28B 100 ng/mL, overnight H1N1, p=0.92): 1.0
- GRO, ratio IL-28B/no IL-28B [1, 6]: 1.0
- IL-5, ratio IL-28B/no IL-28B [1, 6]: 1.0
- IL-9, ratio IL-28B/no IL-28B [1, 6]: 1.0
- IL-13, ratio IL-28B/no IL-28B [1, 6]: 1.0
- Fractalkine [1, 7]: 16.1 (3.2-60.2) pg/mL
- GRO [1, 7]: 3.2 (3.2-3.2) pg/mL
- IFN-α [1, 7]: 1290.8 (502.4-1969.9) pg/mL
- IFN-γ [1, 7]: 48.0 (13.9-133.3) pg/mL
- IL-1β [1, 7]: 0.6 (0.6-4.0) pg/mL
- IL-2 [1, 7]: 61.5 (6.0-168.9) pg/mL
- IL-4 [1, 7]: 0.6 (0.6-1.5) pg/mL
- IL-5 [1, 7]: 0.6 (0.6-0.6) pg/mL
- IL-6 [1, 7]: 104.0 (15.0-156.6) pg/mL
- IL-9 [1, 7]: 0.6 (0.6-0.6) pg/mL
- IL-13 [1, 7]: 0.6 (0.6-0.9) pg/mL
- IP-10 [1, 7]: 8336.4 (7362.5-9289.1) pg/mL
- MCP-1 [1, 7]: 0.5 (0.5-827.4) pg/mL
- MCP-3 [1, 7]: 760.9 (398.3-2500.5) pg/mL
- MIP-1α [1, 7]: 321.4 (173.7-485.3) pg/mL
- TNF-α [1, 7]: 23.2 (0.7-44.8) pg/mL
- sCD40-L [1, 7]: 0.6 (0.6-77.7) pg/mL
- Th1-cytokines (in words, abstract) ([1]; in vitro): increased Th1-cytokines (e.g. IFN-γ)
- IL-12 production in monocytes and macrophages [2]: induce IL-12 production in monocytes and macrophages
- reduction in proliferation capacity of memory B-cells ([3]; 5-day H1N1, n = 6): 70%
- H1N1-stimulated B-cell proliferation (in words) ([3]; IL-28B 1, 10, 100 ng/mL, 5-day H1N1, n = 6): dose-dependent decrease
- reduction of H1N1-stimulated B-cell proliferation ([3]; abstract, in vitro): 70%
